Laboratory results reported in PMC3076674 (Nature structural & molecular biology, 2011).

Target: T1, MED25 VP16-binding domain (VBD) (human, UniProt Q71SY5 390-553)
T1 sequence (looked up): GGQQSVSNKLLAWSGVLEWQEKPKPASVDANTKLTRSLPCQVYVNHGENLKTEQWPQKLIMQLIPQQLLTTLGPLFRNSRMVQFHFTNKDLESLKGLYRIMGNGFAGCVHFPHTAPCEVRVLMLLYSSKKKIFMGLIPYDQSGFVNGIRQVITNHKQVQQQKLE
Assay: ITC

B1: VP16 TAD (full-length transactivation domain, amino acids 411-490) (domain or fragment, Herpes simplex virus 1, UniProt P06492 411-490, looked up)
chain: STAPPTDVSLGDELHLDGEDVAMAHADALDDFDLDMLGDGDSPGPGFTPHDSAPYGALDMADFEFEQMFTDALGIDEYGG
  Kd: ~50 nM
